Assay results reported in US20260297187 (published 2026).
Where a chain is given by its changes, count along the chain named. In names and notes the source's numbering stands.

B1: h2C10.G4.H0aL0a (antibody, V domains shown)
VH: QVQLVQSGAEVKKPGASVKVSCKASGFAFTNYLIEWVRQAPGQGLEWMGVLNPGSGATNYNEKFKGRVTMTRDTSISTAYMELSRLRSDDTAVYYCARGIYGGYFAMDYWGQGTLVTVSS
VL: DIQMTQSPSSLSASVGDRVTITCRASQDITTYLNWYQQKPGKAPKLLIYYTSRLHSGVPSRFSGSGSGTDFTFTISSLQPEDIATYYCQQGNTLPRTFGQGTKVEIK
B2: h2C10.G4.H0aL3 (antibody, V domains shown)
VH: B1 VH
VL: B1 VL with K42G, F71Y, F73L, Q100G, V104L
B3: h4D10.G4.H4L1 (antibody, V domains shown)
VH: QVQLVQSGAEVKKPGASVKVSCKASGYTFSSYVIHWVRQAPGQGLEWMGYFNPYNNGTNYNENFKGRVTMTADTSTSTVYMELSSLRSEDTAVYYCARYYYASGSLYFDYWGQGTTVTVSS
VL: DIQLTQSPSFLSASVGDRVTITCSASSSVSYMHWYQQKPGKAPKPLIYEISKLASGVPSRFSGSGSGTEFTLTISSLQPEDAATYYCQQWNYPLITFGGGTKVEIK
B4: h2C10.G4.H3L2 (antibody, V domains shown)
VH: B1 VH with R72A
VL: B1 VL with P8T, K42G, F71Y, F73L, Q100G, V104L
B5: h4D10.G4.H0bL2 (antibody, V domains shown)
VH: B3 VH with A72R
VL: B3 VL with L4M, F10T, E80D
B6: h2C10.G4.H0aL1 (antibody, V domains shown)
VH: B1 VH
VL: B1 VL with F73L
B7: h4D10.G4.H0bL1 (antibody, V domains shown)
VH: B3 VH with A72R
VL: B3 VL
B8: h4D10.G4.H3L1 (antibody, V domains shown)
VH: B3 VH with T76I, V79A, S85R, E89D, T116L
VL: B3 VL
B9: h2C10.G4.H3L3 (antibody, V domains shown)
VH: B1 VH with R72A
VL: B1 VL with K42G, F71Y, F73L, Q100G, V104L
B10: h2C10.G4.H3L4 (antibody, V domains shown)
VH: B1 VH with R72A
VL: B1 VL with K42G, F73L, Q100G, V104L
B11: h4D10.G4.H3L2 (antibody, V domains shown)
VH: B3 VH with T76I, V79A, S85R, E89D, T116L
VL: B3 VL with L4M, F10T, E80D
B12: h2C10.G4.H3L1 (antibody, V domains shown)
VH: B1 VH with R72A
VL: B1 VL with F73L
B13: h2C10.G4.H0aL0b (antibody, V domains shown)
VH: B1 VH
VL: B1 VL with F73L, I83F
B14: P23B6 (antibody, V domains shown)
VH: QVQLLQPGAEPVKPGTSVKLSCKASGYNFTSYWLNWVKLRPGQGLEWIGDIHPGRGSINYNEKFKSKAILTVDTSSRTAYIQLSSLASEDSALYYCARADGSWFVYWGQGTLVTVSA
VL: DIVLTQSPASLAVSLGQRATISCRASQSVSTSSYSYMHWYQQKPGQPPKLLIKYASNLESGVPARFSGSGSGTDFTLNIHPVEEEDTATYYCQHSWEIPWTFGGGTKLEIK
B15: 2G12 (antibody, V domains shown)
VH: QIQLVQSGPELKKPGETVKISCKASGYSFTHHGMNWVKQAPGKDLKWMGWINTYTGEPTYADDFRGRFAFSLETSASTAYLQINNLKSEDTATYFCARKDYYISGNFDYWGQGTTLTVSS
VL: DIQMTQSPSSLSASLGERVSLTCRASQDIGSNLNWLQQEPDGTIKRLIYATSSLDSGVPKRFSGSRSGSDYSLTISSLESEDFVDYYCLQYASSPYTFGGGTKLEIK
B16: 4H11 (antibody, V domains shown)
VH: QIQLVQSGPELKKPGETVKISCKASGYTLTDYGMNWVSQAPGKGLKWVGWINTYTGEPTYADDFKGRFAFSLDTSASTAYLQINNLKNEDTATYFCARKNIYGYFDVWGAGTTVTVSS
VL: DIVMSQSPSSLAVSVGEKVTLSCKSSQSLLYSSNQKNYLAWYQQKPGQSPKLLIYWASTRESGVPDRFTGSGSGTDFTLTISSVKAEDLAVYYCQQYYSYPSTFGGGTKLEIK
B17: 5D5.G4 (antibody, V domains shown)
VH: B15 VH with S28T, F29L, H31N, H32Y, K43T, R65K, S88N, I103V
VL: B15 VL
B18: h4D10.G4.H4(N56Q Y100V)L2 (antibody, V domains shown)
VH: B3 VH with N56Q, Y100V
VL: B3 VL with L4M, F10T, E80D
B19: h4D10.G4.H4(N56V Y100F)L2 (antibody, V domains shown)
VH: B3 VH with N56V, Y100F
VL: B3 VL with L4M, F10T, E80D
B20: h4D10.G4.H4(N56W Y100W)L2 (antibody, V domains shown)
VH: B3 VH with N56W, Y100W
VL: B3 VL with L4M, F10T, E80D
B21: h4D10.G4.H4(N56I Y100V)L2 (antibody, V domains shown)
VH: B3 VH with N56I, Y100V
VL: B3 VL with L4M, F10T, E80D
B22: h4D10.G4.H4(N56W Y100F)L2 (antibody, V domains shown)
VH: B3 VH with N56W, Y100F
VL: B3 VL with L4M, F10T, E80D
B23: h4D10.G4.H4(N56V Y100W)L2 (antibody, V domains shown)
VH: B3 VH with N56V, Y100W
VL: B3 VL with L4M, F10T, E80D
B24: h4D10.G4.H4(N56W Y100V)L2 (antibody, V domains shown)
VH: B3 VH with N56W, Y100V
VL: B3 VL with L4M, F10T, E80D
B25: h4D10.G4.H4(N56I Y100W)L2 (antibody, V domains shown)
VH: B3 VH with N56I, Y100W
VL: B3 VL with L4M, F10T, E80D
B26: h4D10.G4.H4(N56V Y100V)L2 (antibody, V domains shown)
VH: B3 VH with N56V, Y100V
VL: B3 VL with L4M, F10T, E80D
B27: h4D10.G4.H4(N56Q Y100W)L2 (antibody, V domains shown)
VH: B3 VH with N56Q, Y100W
VL: B3 VL with L4M, F10T, E80D
B28: h4D10.G4.H4(N56I Y100F)L2 (antibody, V domains shown)
VH: B3 VH with N56I, Y100F
VL: B3 VL with L4M, F10T, E80D

Biological target: T1, CEACAM1-his (human)
T1 chain: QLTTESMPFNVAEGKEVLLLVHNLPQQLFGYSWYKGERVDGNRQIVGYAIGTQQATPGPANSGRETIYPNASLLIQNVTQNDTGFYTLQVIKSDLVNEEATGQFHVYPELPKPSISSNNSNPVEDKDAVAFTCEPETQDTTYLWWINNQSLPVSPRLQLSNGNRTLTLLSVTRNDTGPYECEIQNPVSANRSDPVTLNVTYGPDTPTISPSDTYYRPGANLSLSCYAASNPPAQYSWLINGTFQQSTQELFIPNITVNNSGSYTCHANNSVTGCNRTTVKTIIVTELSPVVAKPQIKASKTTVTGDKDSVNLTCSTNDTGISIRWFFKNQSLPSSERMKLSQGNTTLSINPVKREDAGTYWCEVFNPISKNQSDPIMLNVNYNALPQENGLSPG
Assay: BLI

Row | Binder | Kd
1 | B1 | 2.15 nM
2 | B2 | 0.944 nM
3 | B3 | 1.53 nM
4 | B4 | 0.927 nM
5 | B5 | 2.28 nM
6 | B6 | 1.81 nM
7 | B7 | 2.16 nM
8 | B8 | 1.46 nM
9 | B9 | 1.13 nM
10 | B10 | 2 nM
11 | B11 | 1.77 nM
12 | B12 | 2.18 nM
13 | B13 | 2.23 nM

Biological target: T1, CEACAM1-his
Assay: BLI
Remark: another data set of the same source

Row | Binder | Kd
14 | B14 | 6.31 nM
15 | B15 | 2.19 nM
16 | B16 | 3.51 nM
17 | B17 | 2.11 nM

Biological target: T1, CEACAM1-his
Assay: BLI
Remark: another data set of the same source

Row | Binder | Kd
18 | B18 | 5.86 nM
19 | B19 | 2.75 nM
20 | B20 | 3.39 nM
21 | B21 | 6.22 nM
22 | B22 | 1.13 nM
23 | B23 | 4.87 nM
24 | B24 | 4.97 nM
25 | B25 | 5.41 nM
26 | B26 | 4.67 nM
27 | B27 | 3.65 nM
28 | B28 | 3.14 nM
